Data from the supplement of paper PMC12764529.
± gives the half width of the 95% confidence interval.

Legend:
[1] = folding stability dG unfold from trypsin proteolysis; higher = more stable
Outline: (§1)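 Sequencing followed digestion of designed mini-proteins with trypsin and chymotrypsin, each at 11 concentrations in threefold dilutions together with a no-protease condition. The mini-proteins were under 80 residues, had no cysteine, sat in a PA-tagged cDNA display construct, and were kept only if AlphaFold2 dimer inter-PAE was above 15. From the counts, Bayesian fitting gave K50, and unfolding free energy was derived against a sequence-predicted unfolded-state K50 and a shared folded-state K50, per protease or combined.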

[2] = folding stability dG unfold from chymotrypsin proteolysis; higher = more stable
Outline: as §1

[3] = folding stability dG unfold (combined trypsin and chymotrypsin); higher = more stable
Outline: as §1

| Sequence | folding stability dG unfold [1] | folding stability dG unfold [2] | folding stability dG unfold [3] |
| --- | --- | --- | --- |
| SAGGKKPKVKKVKVKLTLVDPETGEEVEVEAELYELPDGYVVLTVRNKKTGKTYRFVFKDGKLYLEPVSAGG [r13_117_TrROS_Hall] | 2.88 ± 0.1 kcal/mol | 4.46 ± 0.11 kcal/mol | 4.12 ± 0.35 kcal/mol |
| SAGGKKTVKIEIVLPKEELEELLKKLLEEAKKKGLKVEVKVELKEVEVEVNGKKKKVLVLKVEIKVEPSAGG [r13_974_TrROS_Hall] | 3.17 ± 0.12 kcal/mol | 3.76 ± 0.14 kcal/mol | 3.55 ± 0.19 kcal/mol |
| SAGGKKTYKVRIEIKVTDPNGKKRTIEIELEVPESEEEAEKLAKELAEKLKEKGYKVEIVKIEVEPLSAGGS [r16_525_TrROS_Hall] | 3.98 ± 0.2 kcal/mol | 4.08 ± 0.064 kcal/mol | 4.03 ± 0.12 kcal/mol |
| SAGGKKYKVIKEIEITLENGKKIKIKLIEYNEKTNEYILEITYPDGKKITITVPKGMSIEEALKKLLSSAGG [r13_470_TrROS_Hall] | 2.37 ± 0.16 kcal/mol | 2.52 ± 0.051 kcal/mol | 2.41 ± 0.12 kcal/mol |
| SAGGKKYVLIKVKVRVEKEVNGEKKEVELELEILVPVDEETGKTPEEKAKELAKKLPPEVTEVKIEPVSAGG [r13_335_TrROS_Hall] | 1.63 ± 0.15 kcal/mol | 2.86 ± 0.061 kcal/mol | 2.21 ± 0.31 kcal/mol |
| SAGGKLKIKIGDKEYTVESVEIIEERPLPGGGPVYLIRLKFKDGPALIEIPPNIPSSISNNGTLVAGSAGGS [r16_638_TrMRF] | 1.36 ± 0.04 kcal/mol | 1.95 ± 0.058 kcal/mol | 1.75 ± 0.095 kcal/mol |
| SAGGKLPLPPGTEVEFLFRSPLDPRRLYLVRVRFEPVPPDRLRLRPRVFNPETGEEVEFEFEVPLDEGSAGG [r13_268_TrMRF] | 2.46 ± 0.041 kcal/mol | 3.234 ± 0.025 kcal/mol | 3 ± 0.052 kcal/mol |
| SAGGKLQLLLRSPDGNVEVALSFEKLPDGKVKVTATVRNKKTGRTYRLEVTFDLKTKKIEIKLEELPSAGGS [r16_684_TrROS_Hall] | 4.78 ± 0.22 kcal/mol | 6.24 ± 0.14 kcal/mol | > 6 kcal/mol |
| SAGGKMKTVKVTITDKDGRKIEIVDVTVKDNKVYVVVKDKKTKKTIVLEFDTKEEAEEAIKKLLEAKSAGGS [r16_736_TrROS_Hall] | 0.976 ± 0.071 kcal/mol | 2.52 ± 0.066 kcal/mol | 2.18 ± 0.34 kcal/mol |
| SAGGKMLVKIKIKVTIYDKNGKPVKEVELELVFPSLEDLLNALKSLSPEKIKKVEIVSIEEIDEEDLSAGGS [r16_677_TrROS_Hall] | 3.5 ± 0.26 kcal/mol | 4.06 ± 0.32 kcal/mol | 3.73 ± 0.21 kcal/mol |
| SAGGKMSLEDIKEVKITKISEEELKKNGTIKIEIYNKNGKLIKTIEIKIKPVKVKDKDGKEKTLEELKSAGG [r13_864_TrROS_Hall] | 0.897 ± 0.042 kcal/mol | 1.49 ± 0.031 kcal/mol | 1.29 ± 0.11 kcal/mol |
| SAGGKMVKIEITLSPEEIEKIKEKLEEETGLEVEIKVEKNENGEVKLIITFKSEEAAKKALEKLGIESAGGS [r16_172_TrROS_Hall] | 2.63 ± 0.16 kcal/mol | 3.7 ± 0.15 kcal/mol | 3.42 ± 0.14 kcal/mol |
| SAGGKPGKWRKVEIWLPPDMPDIIEEIAKNWPNVNVDTERHPENGWYPVTGYFPDPNGKPVAKIHIWSAGGS [r8_267_TrROS] | 0.185 ± 0.064 kcal/mol | 0.933 ± 0.17 kcal/mol | 0.65 ± 0.2 kcal/mol |
| SAGGKPKEIVIEVELEVVEVNGEKYLVLKAKIIDKETNEVYEVTAVFNLKTGKLVGIEVKKLTVEELKSAGG [r13_772_TrROS_Hall] | 3.16 ± 0.25 kcal/mol | 4.9 ± 0.23 kcal/mol | 4.66 ± 0.37 kcal/mol |
| SAGGKPKVEIKIEEIPVDGELYLVIEIKVEEKNATLTLTLPNGEEITMEFDEETGTVRIIARIPLEDLSAGG [r13_380_TrROS_Hall] | 3.24 ± 0.29 kcal/mol | 3.09 ± 0.15 kcal/mol | 3.12 ± 0.22 kcal/mol |
| SAGGKPLEPKIEVEVIPLPSGERVITLRVEVPPNDPLKIKFPGLKKEVEFPGDDEVEFRVVVPPDSFSAGGS [r16_56_TrMRF] | 0.662 ± 0.1 kcal/mol | 0.631 ± 0.1 kcal/mol | 0.69 ± 0.14 kcal/mol |
| SAGGKPTQTITITLKDGRTLTIKVGQTVTITLDNGKTITVTVKDATITVKDGKVTITVNGKTYTFTVKSAGG [r13_643_TrROS_Hall] | 3.45 ± 0.24 kcal/mol | 4.73 ± 0.13 kcal/mol | 4.62 ± 0.23 kcal/mol |
| SAGGKPVRIRSSNGWPIEINPEDGTIKVEFPGYEVEFEVKEDGTIQFQIRNPKDGKPIMPMTLQIEKSAGGS [r16_760_TrROS] | 0.694 ± 0.049 kcal/mol | 1.07 ± 0.093 kcal/mol | 0.98 ± 0.072 kcal/mol |
| SAGGKSVKVSLPKEALKKAKENEKVVITLPDGTKREAILVRGGDSVPVFVVNPDNPEEAEYVGEATVGSAGG [r13_745_TrMRF] | -0.503 ± 0.16 kcal/mol | 0.134 ± 0.042 kcal/mol | -0.0228 ± 0.09 kcal/mol |
| SAGGKTIEIEVKVPPGMTEEEVAKKLAEELAKELEKKTGKEIKIEIEKVEKLPNGERKVRIKIEVKPSAGGS [r8_156_TrROS_Hall] | 1.42 ± 0.035 kcal/mol | 1.8 ± 0.18 kcal/mol | 1.74 ± 0.2 kcal/mol |
| SAGGKTIEVEIVVPPDMTPEEVAARLAAALPPGAKIRVEEVREVTGPDGRKYRIFKVTIYDEKTGEPLSAGG [r13_12_TrROS_Hall] | 3.61 ± 0.14 kcal/mol | 2.99 ± 0.072 kcal/mol | 3.12 ± 0.16 kcal/mol |

| Sequence | folding stability dG unfold [1] | folding stability dG unfold [2] | folding stability dG unfold [3] |
| --- | --- | --- | --- |
| SAGGKTIMHMYMNPNGWFIRAKIKLDPDGKWKITDVEIYPMEMKYEDPNGKPREMPMFMIKIRIKPDSAGGS [r8_270_TrROS] | 3.03 ± 0.084 kcal/mol | 4.26 ± 0.046 kcal/mol | 3.78 ± 0.092 kcal/mol |
| SAGGKTISIEFYMPPGEPPPSIEEIAKELFPGYKDIKIKNIEIEDVEPDPDNGMKYVRVSFTIEVEPPSAGG [r13_10_TrROS] | 3.25 ± 0.27 kcal/mol | 3.42 ± 0.23 kcal/mol | 3.39 ± 0.25 kcal/mol |
| SAGGKTIVIELTPEEVEELLKKLLEELKKKAEENPDAKITIVITTPDGRTYTITIDLKTGKITIEELPSAGG [r13_216_TrROS_Hall] | 2.39 ± 0.051 kcal/mol | 3.93 ± 0.13 kcal/mol | 3.43 ± 0.1 kcal/mol |
| SAGGKTIWIPMPPGDPEKFAKNIADEILEEAQKQGENVDVKITIQYPDGQYMRITIDGNGKIDKIVPWSAGG [r13_965_TrROS] | 0.333 ± 0.2 kcal/mol | 0.652 ± 0.31 kcal/mol | 0.636 ± 0.31 kcal/mol |
| SAGGKTKVIVVKVKPEMTVEEIAKKLAEELKKKGKKVKVEVKVIEKLPNGELYVKVTVKDGKLTIEPSAGGS [r8_7_TrROS_Hall] | 1.12 ± 0.085 kcal/mol | 1.42 ± 0.073 kcal/mol | 1.35 ± 0.19 kcal/mol |
| SAGGKTVPIMFPFDSPDQIEEIIEELAKPGFDDVKPERIEPEPPPDGNYYFPVRIEVDPKNGKIEITFSAGG [r13_174_TrROS] | 0.0445 ± 0.13 kcal/mol | 0.185 ± 0.19 kcal/mol | -0.0243 ± 0.29 kcal/mol |
| SAGGKTVTIKAKSLEDALKAIEALPSVDKVTITVEVNGKTVTITLTVKPPPPVKYELDKNGKLVKKEKSAGG [r13_183_TrROS_Hall] | 0.794 ± 0.05 kcal/mol | 1.56 ± 0.086 kcal/mol | 1.28 ± 0.25 kcal/mol |
| SAGGKTVVIEAESLEEALAAIEALPPDVKKVVIFNKETGVLVEVTVDPKTGEIKEIKVYKIDPEKGKLSAGG [r13_945_TrROS_Hall] | 1.22 ± 0.09 kcal/mol | 2.861 ± 0.026 kcal/mol | 2.54 ± 0.12 kcal/mol |
| SAGGKTVVLEFDSVEDLKAALPPGAEVEIVVIREDGSKKTITVPAKDLKLELKPGEKYRVVIKVKPKKSAGG [r13_461_TrROS_Hall] | 1.5 ± 0.09 kcal/mol | 2.49 ± 0.084 kcal/mol | 2.17 ± 0.12 kcal/mol |
| SAGGKTYKIKVTVEVKNENGETEKKEYVIEVKENKTPEEIAEELKKKLGVEKVEIVDPKTGKKYTIELSAGG [r13_663_TrROS_Hall] | 1.9 ± 0.052 kcal/mol | 3.185 ± 0.029 kcal/mol | 2.83 ± 0.084 kcal/mol |
| SAGGKVSVEVRGNGPGSYVALWLPGPGTVIAREFEDGDRFDDLPEDAEPSRVVFFGYDGVPEEFELGSAGGS [r8_487_TrMRF] | 0.32 ± 0.032 kcal/mol | 0.487 ± 0.071 kcal/mol | 0.449 ± 0.043 kcal/mol |
| SAGGKVVKTKEEAEKLVKEGKAEVVSVKKVKVPVNGKEKEVEVLEVKIKDKKTKKEKTIVLTKEQLKSAGGS [r16_271_TrROS_Hall] | -0.319 ± 0.36 kcal/mol | -0.863 ± 0.27 kcal/mol | -0.894 ± 0.78 kcal/mol |
| SAGGKVVVLTFPKDNPEEVREALAKLPNVVRVEVEKVNDRYLAVAELEGELAVFVSLPDGRYVLLVLGSAGG [r13_907_TrMRF] | 2.36 ± 0.091 kcal/mol | 2.994 ± 0.021 kcal/mol | 2.73 ± 0.043 kcal/mol |
| SAGGKWKPIGKFEFTLPDGVKVTVTVEENPPLELKITAEVEIYVPPPKPPVPPLGPEEVKKWLEENKSAGGS [r16_6_TrMRF] | 1.87 ± 0.12 kcal/mol | 1.86 ± 0.05 kcal/mol | 1.8 ± 0.2 kcal/mol |
| SAGGKYTFTPAPPNSESEVVKKAEELKKKLAEEPGVDKKIEIEIKPSPDGSLTIKVTFSTGTYDAAASAGGS [r16_356_JUSTAS] | 0.514 ± 0.027 kcal/mol | 1.32 ± 0.094 kcal/mol | 0.942 ± 0.12 kcal/mol |
| SAGGKYVIIMFPLPPNLEVEIEYPGVPVHRTPNGSLMFQIPPNEPIRIKIKNPNGEEEELPINIFPLSAGGS [r8_72_TrROS] | 1.77 ± 0.1 kcal/mol | 2.33 ± 0.1 kcal/mol | 2.2 ± 0.2 kcal/mol |
| SAGGKYVMFPFDSPEDLKDLLPPGYPVEIHMMPPKGKHRTRTFTPDEIKLELPPGENFYFMIKVKPPDSAGG [r13_461_TrROS] | 1.55 ± 0.16 kcal/mol | 1.94 ± 0.33 kcal/mol | 1.74 ± 0.2 kcal/mol |
| SAGGLAKAVAEELGLPELKVKEVRFAPDPAGPGLTVEVVFELPDGSYLRVEVRFHPDRIEIKAVPLPPSAGG [r19_392_TrMRF] | 2.09 ± 0.093 kcal/mol | 3.65 ± 0.15 kcal/mol | 3.23 ± 0.15 kcal/mol |
| SAGGLEEIAEKIAEELKKKGYKAEIKEVVKPPTNEVVIKYTVTYKDKNEIIEEEEKEITFKLPPGLESAGGS [r8_102_JUSTAS] | -0.556 ± 0.16 kcal/mol | 0.741 ± 0.14 kcal/mol | 0.377 ± 0.16 kcal/mol |
| SAGGLEEKILEAVKNMSPEEPVVEREVELPDGKLKVTVTRDGLPYTVTITRTNPDGTTTTTTTTILLSAGGS [r16_642_JUSTAS] | 2.46 ± 0.16 kcal/mol | 2.37 ± 0.046 kcal/mol | 2.34 ± 0.12 kcal/mol |
